In patent publication US20220348663A1 (Y BIOLOGICS, published 2022):

Key:
[1] = biological target: T1, human B7-H3 antigen (Octet) (human, UniProt Q5ZPR3 29-466, limits assumed); experiment: BLI (Octet QK), antibody captured on AHC biosensor, B7-H3 antigen 30-0.24 nM, 1:1 global fit
T1 construct: Soluble antigen in the BLI assay
T1 sequence: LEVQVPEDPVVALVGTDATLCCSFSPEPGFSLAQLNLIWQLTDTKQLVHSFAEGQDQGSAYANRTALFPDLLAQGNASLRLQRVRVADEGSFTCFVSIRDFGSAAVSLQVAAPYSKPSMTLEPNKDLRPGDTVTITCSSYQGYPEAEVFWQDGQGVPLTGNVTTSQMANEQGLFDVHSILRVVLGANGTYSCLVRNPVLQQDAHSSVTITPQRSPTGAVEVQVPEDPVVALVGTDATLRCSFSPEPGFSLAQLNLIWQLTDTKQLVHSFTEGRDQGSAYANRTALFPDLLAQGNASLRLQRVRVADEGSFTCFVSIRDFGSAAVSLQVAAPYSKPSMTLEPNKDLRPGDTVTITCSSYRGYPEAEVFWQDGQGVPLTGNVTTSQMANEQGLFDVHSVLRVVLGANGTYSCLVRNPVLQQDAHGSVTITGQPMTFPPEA

[2] = biological target: T2, Mouse B7-H3 (#50973-M08H, Sino) (mouse, UniProt Q8VE98 29-244); experiment: ELISA on coated Mouse B7H3, OD450nm
T2 construct: Bought protein; also called mouse B7-H3 antigen
T2 sequence (looked up): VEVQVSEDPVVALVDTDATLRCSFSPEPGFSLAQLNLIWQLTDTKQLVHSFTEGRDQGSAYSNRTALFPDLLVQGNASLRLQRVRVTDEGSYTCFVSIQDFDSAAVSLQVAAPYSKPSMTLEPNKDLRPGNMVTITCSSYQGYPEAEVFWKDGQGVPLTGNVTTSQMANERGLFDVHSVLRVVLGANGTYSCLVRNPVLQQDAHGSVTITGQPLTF

[3] = biological target: T3, rat B7-H3 (#80380-R08H, Sino) (rat, UniProt Q7TPB4 29-244); experiment: ELISA on coated Rat B7H3, OD450nm
T3 construct: Bought protein; also called rat B7-H3 antigen
T3 sequence (looked up): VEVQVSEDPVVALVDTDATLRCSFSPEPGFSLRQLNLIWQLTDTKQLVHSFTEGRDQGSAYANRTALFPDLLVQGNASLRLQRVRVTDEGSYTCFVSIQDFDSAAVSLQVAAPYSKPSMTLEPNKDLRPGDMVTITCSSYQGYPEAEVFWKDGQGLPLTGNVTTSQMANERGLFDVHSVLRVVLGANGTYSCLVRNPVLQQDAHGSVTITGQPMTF

| Binder | Kd [1] [nM] | binding result [2] | binding result [3] |
| --- | --- | --- | --- |
| CD276-040F10 (antibody, V domains shown, Converted from scFv to IgG form) VH: QVQLVESGAEVKKPGASVKLSCKASGYTFSSYWMHWVRQAPGQRLEWMGEINPGNGHTNYNEKFKSRVTITVDKSASTAYMELSSLRSEDTAVYYCVADPRRPKVPTALFVYWGQGTLVTVSS VL: DIQMTQSPSSVSASVGDRVTISCRASQGIGTWLAWYQQKPGKAPRLLIYAASSLDSGVPSRFSASGSGTDFTLTISSLQPEDFATYYCQQAINFPITFGQGTRLEIK | 0.06 |  |  |
| CD276-039C05 (antibody, V domains shown, Converted from scFv to IgG form; Parent of the _LS_ light-chain variants) VH: QVQLVESGAEVKKPGSSVKVSCKASGGTFSSYAISWVRQAPGQGLEWMGRIIPILGIANYAQKFQGRVTITADKSTSTAYMELSSLRSEDTAVYYCANGGDSSSWYTFDYWGQGTLITVSS VL: DIQMTQSPSTLSASVGDKLTLTCRASQSISRWLAWYQQKPGKAPKLLIYKASYLQTGVPSRFSGSGTGTEFTLTISSLQPDDFATYYCQQYNTFPLTFAGGTKVEIK |  | binds | binds |
